From paper PMC4205851, “Protein-tyrosine phosphorylation interaction network in Bacillus subtilis reveals new substrates, kinase activators and kinase cross-talk” (Frontiers in Microbiology, 2014)

Biological target: T1, Strep-tagged MinD (B. subtilis 168, UniProt Q01464 1-268)
T1 construct: MinD ATPase of B. subtilis 168, PCR fragment in a pQE-30 vector with the His6-tag replaced by the strep-tag; Pre-labelled with Strep-Tactin conjugated to horse radish peroxidase for the far-Western
T1 sequence (looked up): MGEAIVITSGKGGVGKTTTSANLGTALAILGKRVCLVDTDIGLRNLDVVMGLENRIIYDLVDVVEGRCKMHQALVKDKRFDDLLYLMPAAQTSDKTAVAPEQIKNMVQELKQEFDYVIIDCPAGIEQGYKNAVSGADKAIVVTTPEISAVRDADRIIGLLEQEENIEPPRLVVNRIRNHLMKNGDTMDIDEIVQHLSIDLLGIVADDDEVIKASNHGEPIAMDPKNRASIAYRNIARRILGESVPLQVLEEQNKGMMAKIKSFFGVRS
Experiment: far-Western; PtkA, MinC and TkmA separated by 12% SDS-PAGE, transferred to nitrocellulose and renatured; probed with Strep-tagged MinD labelled with Strep-Tactin-HRP in TBS-T (50 mM Tris pH 7.5, 150 mM NaCl, 0.05% Tween 20) with 1% BSA; AEC staining
Conditions: both partners purified

binding result: binds
B1: MinC (purified) (natural protein, B. subtilis 168, UniProt Q01463 1-226, looked up)
chain: MKTKKQQYVTIKGTKNGLTLHLDDACSFDELLDGLQNMLSIEQYTDGKGQKISVHVKLGNRFLYKEQEEQLTELIASKKDLFVHSIDSEVITKKEAQQIREEAEIISVSKIVRSGQVLQVKGDLLLIGDVNPGGTVRAGGNIFVLGSLKGIAHAGFNGNNQAVIAASEMLPTQLRINHVLNRSPDHIQKGNEMECAYLDTDGNMVIERLQHLAHLRPDLTRLEGGM
notes: MinC of B. subtilis 168
